Reference: article PMC7529705 (Biochemistry, 2020)

Target: WD-40 repeat-containing protein 5 (WDR5), full-length (human, UniProt P61964 1-334)
Experiment: ITC

B1: Histone H3 1–12aa unmodified peptide (peptide)
peptide: ARTKQTARKSTG
Kd: 10.6 ± 0.8 µM
